Experimental data as given in doi:10.1101/714097 (bioRxiv, 2019).
Read-outs that look alike come from different tables or passages of the source.

B1: PrgH (natural protein)
chain: METSKEKTITSPGPYIVRLLNSSLNGCEFPLLTGRTLFVVGQSDALTASGQLPDIPADSFFIPLDHGGVNFEIQVDTDATEIILHELKEGNSESRSVQLNTPIQVGELLILIRPESEPWVPEQPEKLETSAKKNEPRFKNGIVAALAGFFILGIGTVGTLWILNSPQRQAAELDSLLGQEKERFQVLPGRDKMLYVAAQNERDTLWARQVLARGDYDKNARVINENEENKRISIWLDTYYPQLAYYRIHFDEPRKPVFWLSRQRNTMSKKELEVLSQKLRALMPYADSVNITLMDDVTAAGQAEAGLKQQALPYSRRNHKGGVTFVIQGALDDVEILRARQFVDSYYRTWGGRYVQFAIELKDDWLKGRSFQYGAEGYIKMSPGHWYFPSPL
B2: SpaQ (natural protein)
chain: MDDLVFAGNKALYLVLILSGWPTIVATIIGLLVGLFQTVTQLQEQTLPFGIKLLGVCLCLFLLSGWYGEVLLSYGRQVIFLALAKG
B3: PrgK (natural protein)
chain: CKDKDLLKGLDQEQANEVIAVLQMHNIEANKIDSGKLGYSITVAEPDFTAAVYWIKTYQLPPRPRVEIAQMFPADSLVSSPRAEKARLYSAIEQRLEQSLQTMEGVLSARVHISYDIDAGENGRPPKPVHLSALAVYERGSPLAHQISDIKRFLKNSFADVDYDNISVVLSERSDAQLQAPGTPVKRNSFATSWIVLIILLSVMSAGFGVWYYKNHYARNKKGITADDKAKSSNE
B4: InvG (natural protein)
chain: SEKIPVTGSGFVAKDDSLRTFFDAMALQLKEPVIVSKMAARKKITGNFEFHDPNALLEKLSLQLGLIWYFDGQAIYIYDASEMRNAVVSLRNVSLNEFNNFLKRSGLYNKNYPLRGDNRKGTFYVSGPPVYVDMVVNAATMMDKQNDGIELGRQKIGVMRLNNTFVGDRTYNLRDQKMVIPGIATAIERLLQGEEQPLGNIVSSEPPAMPAFSANGEKGKAANYAGGMSLQEALKQNAAAGNIKIVAYPDTNSLLVKGTAEQVHFIEMLVKALDVAKRHVELSLWIVDLNKSDLERLGTSWSGSITIGDKLGVSLNQSSISTLDGSRFIAAVNALEEKKQATVVSRPVLLTQENVPAIFDNNRTFYTKLIGERNVALEHVTYGTMIRVLPRFSADGQIEMSLDIEDGNDKTPQSDTTTSVDALPEVGRTLISTIARVPHGKSLLVGGYTRDANTDTVQSIPFLGKLPLIGSLFRYSSKNKSNVVRVFMIEPKEIVDPLTPDASESVNNILKQSGAWSGDDKLQKWVRVYLDRGQEAIK
B5: SpaP (natural protein)
chain: MGNDISLIALLAFSTLLPFIIASGTCFVKFSIVFVMVRNALGLQQIPSNMTLNGVALLLSMFVMWPIMHDAYVYFEDEDVTFNDISSLSKHVDEGLDGYRDYLIKYSDRELVQFFENAQLKRQYGEETETVKRDKDEIEKPSIFALLPAYALSEIKSAFKIGFYLYLPFVVVDLVVSSVLLALGMMMMSPVTISTPIKLVLFVALDGWTLLSKGLILQYMDIAT

Legend:
cryo-EM structure [1] = target: the molecule itself; assay: cryo-EM structure
cryo-EM structure [2] = target: the molecule itself; assay: cryo-EM structure; remark: listed apart in the source

Protein	stoichiometry N (cryo-EM structure [1])	stoichiometry N (cryo-EM structure [2])
B1	23	24
B2	–	4
B3	23	24
B4	15	16
B5	–	5
